We go through one molecule from US20160159865A1 (CHILDREN S HOSPITAL AND RESEARCH CENTER AT OAKLAND, published 2016).

This assay has as its target T1, human factor H (human, UniProt P08603 19-1231).
T1 construct: Purified human factor H was used in the ELISA; also called fH; human fH
Put plainly: ELISA, fHbp (2 µg/ml) on plate, human factor H titrated. (In general: An ELISA detects its analyte on a solid surface through an enzyme-linked reagent.)

T1 sequence (P08603 19-1231 Y402H/T493R limits assumed): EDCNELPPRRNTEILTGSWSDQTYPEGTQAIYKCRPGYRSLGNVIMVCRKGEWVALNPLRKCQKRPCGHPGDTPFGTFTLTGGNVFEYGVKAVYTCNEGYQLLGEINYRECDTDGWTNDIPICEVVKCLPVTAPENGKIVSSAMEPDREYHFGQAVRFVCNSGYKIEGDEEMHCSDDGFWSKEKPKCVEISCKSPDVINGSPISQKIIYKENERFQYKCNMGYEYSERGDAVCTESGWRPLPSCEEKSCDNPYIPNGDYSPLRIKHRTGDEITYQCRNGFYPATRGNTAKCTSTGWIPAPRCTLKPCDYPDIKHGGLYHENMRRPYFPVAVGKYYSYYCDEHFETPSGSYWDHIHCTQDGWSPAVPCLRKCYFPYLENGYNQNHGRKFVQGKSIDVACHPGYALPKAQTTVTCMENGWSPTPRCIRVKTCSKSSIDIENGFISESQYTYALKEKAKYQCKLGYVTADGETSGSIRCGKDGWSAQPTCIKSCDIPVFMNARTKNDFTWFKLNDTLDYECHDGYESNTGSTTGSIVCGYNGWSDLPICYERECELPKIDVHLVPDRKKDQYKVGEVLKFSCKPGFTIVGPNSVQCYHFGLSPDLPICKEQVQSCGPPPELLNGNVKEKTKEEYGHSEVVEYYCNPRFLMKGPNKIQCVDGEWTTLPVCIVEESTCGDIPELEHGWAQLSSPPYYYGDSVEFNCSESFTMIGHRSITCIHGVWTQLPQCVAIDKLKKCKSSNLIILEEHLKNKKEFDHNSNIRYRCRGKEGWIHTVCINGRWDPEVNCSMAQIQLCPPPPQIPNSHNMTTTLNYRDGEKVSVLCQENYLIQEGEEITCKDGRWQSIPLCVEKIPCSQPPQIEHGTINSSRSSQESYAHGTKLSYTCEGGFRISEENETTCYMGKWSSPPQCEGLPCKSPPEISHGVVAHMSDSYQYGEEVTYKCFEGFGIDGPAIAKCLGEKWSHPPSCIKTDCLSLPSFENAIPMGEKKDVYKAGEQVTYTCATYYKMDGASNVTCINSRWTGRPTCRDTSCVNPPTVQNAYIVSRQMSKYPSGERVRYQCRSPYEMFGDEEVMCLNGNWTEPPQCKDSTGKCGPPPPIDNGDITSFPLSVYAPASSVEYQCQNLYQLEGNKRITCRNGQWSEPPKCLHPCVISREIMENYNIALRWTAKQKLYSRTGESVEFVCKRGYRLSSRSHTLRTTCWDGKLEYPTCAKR

B1: fHbp ID 79 H223R mutant (other)
chain: CSSGGGGSGSGGVAADIGTGLADALTTPLDHKDKGLKSLTLEDSIPQNGTLTLSAQGAEKTFKAGDKDNSLNTGKLKNDKISRFDFVQKIEVDGQTITLASGEFQIYKQDHSAVVALQIEKINNPDKIDSLINQRSFLVSGLGGEHTAFNQLPGGKAEYHGKAFSSDDAGGKLTYTIDFAAKQGHGKIEHLKTPEQNVELASAELKADEKSHAVILGDTRYGSEEKGTYRLALFGDRAQEIAGSATVKIGEKVHEIGIAGKQ
notes: Purified recombinant mutant
Regarding B1, the binding result is recorded as “no binding (tested: human factor H 0.0012 to 20 µg/ml)”.
